The assay deals with murine B7-DC (murine) (UniProt Q9WUL5). The assay is described as follows: flow cytometry; murine bone marrow derived DC incubated with or without soluble PD-1.Ig, then stained with sHIgM12 (the competitor read out). In general terms: In flow cytometry, cells or beads pass a laser one at a time.
murine B7-DC (murine), sequence (Q9WUL5 20-247): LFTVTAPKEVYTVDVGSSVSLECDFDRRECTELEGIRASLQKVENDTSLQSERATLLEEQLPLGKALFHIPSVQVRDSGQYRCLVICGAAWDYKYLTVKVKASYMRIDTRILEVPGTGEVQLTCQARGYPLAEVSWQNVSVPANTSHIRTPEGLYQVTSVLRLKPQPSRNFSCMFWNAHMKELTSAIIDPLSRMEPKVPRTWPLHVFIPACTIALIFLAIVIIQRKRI

PD-1.Ig fusion protein (Fc fusion), sequence (Q02242 25-169): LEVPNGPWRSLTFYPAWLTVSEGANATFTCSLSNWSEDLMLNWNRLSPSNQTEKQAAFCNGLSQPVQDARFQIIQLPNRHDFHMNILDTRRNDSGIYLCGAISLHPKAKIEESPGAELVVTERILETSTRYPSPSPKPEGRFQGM

PD-1.Ig fusion protein (Fc fusion) showed a sHIgM12 staining left, percent of the level in the absence of PD-1 of 50%.

These data come from patent US20160122431A1.
